We go through two molecules from patent US20220387487A1, “COMPOSITIONS AND METHODS FOR TREATMENT OF CANCER” (Aleta Biotherapeutics Inc., priority 2019, published 2022).

For one data set, the system named is Molm14 cells. Put plainly: CAR-CD19 T cell cytotoxicity bridged by purified fusion protein, luciferase Molm14 cells. It is filed as cell-based. As to conditions: FIG. 21A. As to the method: To test cytoxicity, luciferase labeled Molm14 or U937 cells were targeted for cytotoxic killing using a CAR19 T cell preparation and the purified proteins #330, #410 and #440 added in a dose titration. 1×10^4 target cells were added to each well (96 clear round bottom plate) in RPMI medium. The protein titration was started at 180 ng/ml with 3-fold serial titration into corresponding wells (25 μl per well). CAR-CD19 T cells were added at various E:T ratios to the target cells. After 48 hours the plate was centrifuged (450 RCF for 5 minutes) and the cells were washed 1× with PBS then centrifuged a second time. 20 μl lysis buffer was added into each well. The cell lysate was transferred to a 96 opaque white plate. The plates were read in a luminometer with an injector (Glomax Multi Detection System, Promega). The percent killing was calculated based upon the average loss of luminescence of the experimental vs the control (target cell only or target cell plus fusion protein only).

A further data set has as its target CD33 (Homo sapiens, UniProt P20138). Put plainly: ELISA of fusion proteins, FMC63 coat, biotinylated CD33 detection. In kind it is binding. As to the method: ELISAs for binding to CD19, CLEC12A and CD33 were run using purified fusion proteins #330, #410 and #440. A 96 well plate was coated with 1.0 μg/ml FMC63 (Novus) in 0.1 M carbonate, pH 9.5 overnight at 4° C. The plate was blocked with 0.3% non-fat milk in TBS for 1 hour at room temperature. After washing in TBST (0.1 M Tris, 0.5 M NaCl, 0.05% Tween20) 3 times, the fusion protein supernatant was titrated using 3-fold dilutions in 1% BSA in TBS and incubated 1 hour at room temperature. For detection by anti-His, after washing 3 times in TBST, HRP-anti-His (BioLegend) was added at 1:2000. The plate was incubated at room temperature in the dark for 1 hour. For detection of binding to CLEC12A, biotinylated CLEC12A was added at 0.5 μg/ml and incubated for 1 hour. This was followed by adding HRP-SA (Pierce) at 1:2000 and incubated at room temperature in the dark for 1 hour. For testing binding to CD33, biotinylated CD33 was added at 0.5 μg/ml and incubated for 1 hour. This was followed by adding HRP-SA (Pierce) at 1:2000 and incubated at room temperature in the dark for 1 hour. Then, 1-Step Ultra TMB-ELISA (Thermo Fisher) solution, was added and the plate read at […]. Curves were fit using a four-parameter logistic (4 PL) regression to calculate the EC50.

For another data set, the system named is U937 cells. Put plainly: CAR-CD19 T cell cytotoxicity bridged by purified fusion protein, luciferase U937 cells. It is filed as cell-based. As to conditions: FIG. 21B. As to the method:
Several fusion proteins were purified and evaluated for their ability to bridge killing of CLL-1 expressing cells by CAR-T cells that target CD19. Luciferase was introduced to U937 cells and […] by lentiviral transduction. On day 1 U937 cells were seeded at 1×10^4 per well of a round-bottom 96 well plate (Thermo Fisher) or 293T-CLL-1 cells were seeded in a flat bottom plate in cell culture media (RPMI 1640, 10% FBS). On day 2, the fusion proteins #357, #330 and #321 were added at 0.2 μg/ml (20 ng/well) with serial 3 fold dilutions where indicated, then left to incubate at 37° C. for 1 hour using the cell culture incubator. […]
On day 3, the plate was spun at 550 RCF for 5 minutes and rinsed with PBS then spun again to remove the PBS. […] The injector added 100 μl of Luciferase assay reagent per well, then the well was read immediately. The plate was then advanced to the next well for a repeat of the inject-then-read process. […]
The % cell death (aka cytotoxicity) was calculated as follows:
% killing=[1−luc reading (experimental wells)/luc reading (tumor cells without CAR T cells)]×100. […]
To test cytoxicity, luciferase labeled Molm14 or U937 cells were targeted for cytotoxic killing using a CAR19 T cell preparation and the purified proteins #330, #410 and #440 added in a dose titration. […] The plates were read in a luminometer with an injector (Glomax Multi Detection System, Promega). […]

A further data set deals with T1, CLEC12A (Homo sapiens, UniProt Q5QGZ9, K244Q).
T1 sequence (Q5QGZ9 65-265 K244Q): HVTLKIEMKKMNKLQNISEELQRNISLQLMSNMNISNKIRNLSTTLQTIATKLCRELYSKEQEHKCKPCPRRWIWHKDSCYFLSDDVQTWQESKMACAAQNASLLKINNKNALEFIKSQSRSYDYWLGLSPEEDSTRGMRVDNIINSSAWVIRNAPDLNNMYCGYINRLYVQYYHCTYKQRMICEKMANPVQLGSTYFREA
The experiment in a line: ELISA of fusion proteins, FMC63 coat, biotinylated CLEC12A detection. In kind it is binding.

[1] abbreviates: ELISA, FMC63 coat, biotinylated CD33.

B1: #440: fusion protein comprising an anti-CLEC12A VHH, an anti-CD33 scFv, and a CD19 ECD; SEQ ID NO:321 (protein)
chain: MEFGLSWVFLVALFRGVQCQVQLVQSGAEVKKPGESVKVSCKASGYTFTNYGMNWVKQAPGQGLEWMGWINTYTGEPTYADKFQGRVTMTTDTSTSTAYMEIRNLGGDDTAVYYCARWSWSDGYYVYFDYWGQGTSVTVSSGGGGSGGGGSGGGGSDIVMTQSPDSLTVSLGERTTINCKSSQSVLDSSTNKNSLAWYQQKPGQPPKLLLSWASTRESGIPDRFSGSGSGTDFTLTIDSPQPEDSATYYCQQSAHFPITFGQGTRLEIKGGGGSGGGGSGGGGSGGGGSQVQLQESGGGLVQAGGSLRLSCVASGSIRSINVMGWYRQAPGKQRELVAACASDGNTYYADSVKGRFTISRDNAEKTVYLQMNNLKPDDTAVYYCDANSRGNYYSGQGTQVTVSSTSGPGGQGAGGGGSGGGGSGGGGSGGGGSPEEPLVVKVEEGDTAALWCLKGTSDGPTQQLTWSRESPLKPFLKYSLGVPGLGVHVRPDAISVVIRNVSQQMGGFYLCQPGPPSEKAWQPGWTVNVEGSGELFRWNVSDLGGLGCGLKNRSSEGPSSPSGKLMSPKLYVWAKDRPEIWEGEPPCLPPRDSLNQSLSRDLTVAPGSTLWLSCGVPPDSVSRGPLSWTHVHPKGPKSLLSLELKDDRPARDMWVMGTSLMLPRATAQDAGKWYCHRGNLTMSFHLEITARPSRHHHHHH
With B1, the “cytotoxicity on Molm14 cells” value in the data set on Molm14 cells is on record as “about equipotent”. The “CD33 binding EC50” value with CD33 (setting [1]) was 2.1 ng/mL. Also, in the data set with CD33 (Table 10), the “ELISA binding to CD33” value is listed as “binds equally well to both components”. Also, the “cytotoxicity on U937 cells” value in the data set with U937 cells is reported as “essentially the same activity”.

B2: #330: fusion protein comprised of a CD19 variant and an anti-CLL-1 VHH (2H3); SEQ ID NO:305 (protein)
chain: MEFGLSWVFLVALFRGVQCQVQLQESGGGLVQAGGSLRLSCVASGSIRSINVMGWYRQAPGKQRELVAACASDGNTYYADSVKGRFTISRDNAEKTVYLQMNNLKPDDTAVYYCDANSRGNYYSGQGTQVTVSSTSGPGGQGAGGGGSGGGGSGGGGSGGGGSPEEPLVVKVEEGDTAALWCLKGTSDGPTQQLTWSRESPLKPFLKYSLGVPGLGVHVRPDAISVVIRNVSQQMGGFYLCQPGPPSEKAWQPGWTVNVEGSGELFRWNVSDLGGLGCGLKNRSSEGPSSPSGKLMSPKLYVWAKDRPEIWEGEPPCLPPRDSLNQSLSRDLTVAPGSTLWLSCGVPPDSVSRGPLSWTHVHPKGPKSLLSLELKDDRPARDMWVMGTSLMLPRATAQDAGKWYCHRGNLTMSFHLEITARPSRHHHHHH
Consider B2, for which the “cytotoxicity on Molm14 cells” value with Molm14 cells is reported as “less potent”. Besides, in the data set with CD33 (setting [1]), the “CD33 binding EC50 pM” value is reported as “∞” and the “CD33 binding EC50 ng/ml” value is on record as “∞”. Moreover, the “cytotoxicity on U937 cells” value in the data set on U937 cells is reported as “highest cytotoxicity”. Moreover, in the data set with CLEC12A, the “CLEC12A binding EC50” value was determined as 1.4 ng/mL. Further, the half-maximal effective concentration (EC50) with CLEC12A (read-out: CLEC12A binding EC50) turned out to be 0.0299 nM.
